The results in this text go back to US7838231 (REGENTS OF THE UNIVERSITY OF MICHIGAN, dated 2010).

Assay [1] addresses T1, NPHP3, human full length, yeast two-hybrid prey (human, UniProt Q7Z494 1-1330).
T1 sequence (looked up): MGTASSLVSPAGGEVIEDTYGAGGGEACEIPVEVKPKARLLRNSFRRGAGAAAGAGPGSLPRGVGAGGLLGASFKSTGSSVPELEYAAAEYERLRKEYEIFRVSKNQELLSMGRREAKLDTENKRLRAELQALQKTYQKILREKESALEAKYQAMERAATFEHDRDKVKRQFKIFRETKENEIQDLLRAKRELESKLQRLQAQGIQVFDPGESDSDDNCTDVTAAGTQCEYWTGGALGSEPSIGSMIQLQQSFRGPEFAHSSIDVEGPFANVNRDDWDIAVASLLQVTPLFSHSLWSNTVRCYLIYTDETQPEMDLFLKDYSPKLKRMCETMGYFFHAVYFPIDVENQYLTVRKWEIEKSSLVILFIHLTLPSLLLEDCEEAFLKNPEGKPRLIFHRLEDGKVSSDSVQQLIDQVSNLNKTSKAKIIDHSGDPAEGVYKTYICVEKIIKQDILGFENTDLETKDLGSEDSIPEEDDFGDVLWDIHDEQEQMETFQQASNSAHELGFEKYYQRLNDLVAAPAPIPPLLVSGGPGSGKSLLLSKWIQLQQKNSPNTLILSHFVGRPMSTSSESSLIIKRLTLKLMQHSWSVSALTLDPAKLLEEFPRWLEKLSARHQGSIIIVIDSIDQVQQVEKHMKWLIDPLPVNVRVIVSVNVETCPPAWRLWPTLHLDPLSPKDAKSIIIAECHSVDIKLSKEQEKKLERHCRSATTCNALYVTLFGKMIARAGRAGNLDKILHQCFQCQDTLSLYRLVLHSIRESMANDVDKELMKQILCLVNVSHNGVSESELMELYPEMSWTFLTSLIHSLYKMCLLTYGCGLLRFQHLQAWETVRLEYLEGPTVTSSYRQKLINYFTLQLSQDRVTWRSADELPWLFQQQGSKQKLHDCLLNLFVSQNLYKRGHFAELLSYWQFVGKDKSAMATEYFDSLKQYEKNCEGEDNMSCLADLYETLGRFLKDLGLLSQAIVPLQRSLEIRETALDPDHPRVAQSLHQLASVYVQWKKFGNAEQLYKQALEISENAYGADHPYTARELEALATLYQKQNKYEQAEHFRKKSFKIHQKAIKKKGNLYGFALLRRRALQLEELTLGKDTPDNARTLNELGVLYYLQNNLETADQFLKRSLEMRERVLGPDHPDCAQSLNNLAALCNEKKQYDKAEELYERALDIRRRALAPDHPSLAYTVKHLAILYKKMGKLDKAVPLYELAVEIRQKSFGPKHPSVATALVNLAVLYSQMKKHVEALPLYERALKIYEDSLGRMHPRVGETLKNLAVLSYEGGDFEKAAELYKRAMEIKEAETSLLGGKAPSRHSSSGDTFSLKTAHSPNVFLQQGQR
Briefly: direct yeast two-hybrid assay.

Assay [2] has as its target T2, inversin (NPHP2), human full length, yeast two-hybrid prey (human, UniProt Q9Y283 1-1065).
T2 construct: also called INVS
T2 sequence: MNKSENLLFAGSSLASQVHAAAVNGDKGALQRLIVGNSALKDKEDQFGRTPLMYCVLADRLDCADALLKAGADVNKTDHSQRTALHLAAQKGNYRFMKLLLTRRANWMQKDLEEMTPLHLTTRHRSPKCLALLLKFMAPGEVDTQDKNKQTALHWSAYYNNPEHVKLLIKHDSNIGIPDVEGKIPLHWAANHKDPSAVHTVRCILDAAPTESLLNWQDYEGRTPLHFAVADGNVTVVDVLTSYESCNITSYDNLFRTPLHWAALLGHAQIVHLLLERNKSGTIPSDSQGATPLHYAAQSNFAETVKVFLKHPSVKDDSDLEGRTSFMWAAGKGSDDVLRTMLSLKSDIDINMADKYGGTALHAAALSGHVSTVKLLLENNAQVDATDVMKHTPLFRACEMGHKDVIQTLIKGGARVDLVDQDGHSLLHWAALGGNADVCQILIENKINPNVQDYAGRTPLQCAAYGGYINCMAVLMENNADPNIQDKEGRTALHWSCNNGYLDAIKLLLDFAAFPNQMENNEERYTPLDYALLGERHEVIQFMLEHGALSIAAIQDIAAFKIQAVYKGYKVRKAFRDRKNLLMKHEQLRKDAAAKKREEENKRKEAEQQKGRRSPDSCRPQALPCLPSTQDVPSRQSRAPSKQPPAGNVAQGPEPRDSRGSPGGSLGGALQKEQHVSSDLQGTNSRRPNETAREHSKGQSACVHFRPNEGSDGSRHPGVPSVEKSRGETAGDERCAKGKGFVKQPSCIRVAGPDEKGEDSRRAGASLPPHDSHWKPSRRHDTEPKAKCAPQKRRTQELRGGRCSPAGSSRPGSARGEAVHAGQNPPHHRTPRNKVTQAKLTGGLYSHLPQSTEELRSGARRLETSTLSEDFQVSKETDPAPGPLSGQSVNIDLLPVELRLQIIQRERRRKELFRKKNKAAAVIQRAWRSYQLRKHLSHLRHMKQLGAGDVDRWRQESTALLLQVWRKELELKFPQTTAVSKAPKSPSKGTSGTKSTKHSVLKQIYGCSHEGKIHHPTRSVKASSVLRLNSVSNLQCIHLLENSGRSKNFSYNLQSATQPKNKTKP
Briefly: direct yeast two-hybrid assay.

B1: full-length human nephrocystin-5 (NPHP5), yeast two-hybrid fusion (other, not shown: small tags and cut ends)
chain: MKPTGTDPRILSIAAEVAKSPEQNVPVILLKLKEIINITPLGSSELKKIKQDIYCYDLIQYCLLVLSQDYSRIQGGWTTISQLTQILSHCCVGLEPGEDAEEFYNELLPSAAENFLVLGRQLQTCFINAAKAEEKDELLHFFQIVTDSLFWLLGGHVELIQNVLQSDHFLHLLQADNVQIGSAVMMMLQNILQINSGDLLRIGRKALYSILDEVIFKLFSTPSPVIRSTATKLLLLMAESHQEILILLRQSTCYKGLRRLLSKQETGTEFSQELRQLVGLLSPMVYQEVEEQKLHQAACLIQAYWKGFQTRKRLKKLPSAVIALQRSFRSKRSKMLLEINRQKEEEDLKLQLQLQRQRAMRLSRELQLSMLEIVHPGQVEKHYREMEEKSALNIQKHWRGYRERKNFHQQRQSLIEYKAAVTLQRAALKFLAKCRKKKKLFAPWRGLQELTDARRVELKKRVDDYVRRHLGSPMSDVVSRELHAQAQERLQHYFMGRALEERAQQHREALIAQISTNVEQLMKAPSLKEAEGKEPELFLSRSRPVAAKAKQAHLTTLKHIQAPWWKKLGEESGDEIDVPKDELSIELENLFIGGTKPP
notes: Full-length NPHP5 cDNA (598 amino acid residues) fused to a GAL4 domain; also called KIAA0036
Consider B1, for which the binding result in assay [1] and in assay [2] was “no binding” each time.
